Assay results reported in paper PMC11312917.

Columns and labels:
Abl1 SH2 domain = Abl1 SH2 domain (UniProt P00519); experiment: GST-domain microarray probed with biotinylated peptide; settings: reference: unphosphorylated peptide; sites Y251
Abl2 SH2 domain = Abl2 SH2 domain (UniProt P42684); experiment: as above; settings: reference: unphosphorylated peptide; sites Y251
Fyn SH2 domain = Fyn SH2 domain (UniProt P06241); experiment: as above; settings: reference: unphosphorylated peptide; sites Y251
Nck2 SH2 domain = Nck2 SH2 domain (UniProt O43639); experiment: as above; settings: reference: unphosphorylated peptide; sites Y251
Yes SH2 domain = Yes SH2 domain (UniProt P07947); experiment: as above; settings: reference: unphosphorylated peptide; sites Y251
[1] = target: isolated LIM domain of Pdlim5 fused to a Golgi localization sequence; experiment: Golgi co-relocalization assay (immunofluorescence, Pearson's correlation coefficient); settings: HT-22 cells; co-expression of GLS-LIM with isolated PDZ 4xMut; parent: est. 0.88; read off a plot
[2] = target: isolated PDZ domain of Pdlim5 fused to a Golgi localization sequence (UniProt Q96HC4); experiment: as above; settings: HT-22 cells; co-expression of GLS-PDZ with isolated LIM 4xMut; parent: est. 0.84; read off a plot
Chain of UniProt Q96HC4 (Q96HC4 2-85): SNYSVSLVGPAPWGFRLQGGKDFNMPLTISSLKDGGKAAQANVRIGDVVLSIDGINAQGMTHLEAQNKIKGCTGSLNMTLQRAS

With “Pdlim5 242-261 (from UniProt Q96HC4) pY251 peptide” the “binding against the reference” value (Abl1 SH2 domain) was “stronger”, the “binding against the reference” value (Abl2 SH2 domain) was “stronger” and the “binding against the reference” value (Fyn SH2 domain) was “stronger”. For the same substance, the “binding against the reference” value (Nck2 SH2 domain) was “stronger” and the “binding against the reference” value (Yes SH2 domain) was “stronger”.

In the case of “isolated PDZ domain of Pdlim5 (not fused to GLS) (from UniProt Q96HC4) P13G; R17A; K34G; K71A”, the other: Pearson corr. coef. (r) [1] is reported as 0.08.

With “isolated LIM domain of Pdlim5 (not fused to GLS) C541G; F543A; T562A; C570A” the other: Pearson corr. coef. (r) [2] was 0.05.
